# According to the RNAGym collection of RNA variant scans (doi:10.1093/nar/gkz1192):
# B1: CPEB3 Ribozyme (parent)
# chain: UAACAGGGGGCCACAGCAGAAGCGUUCACGUCGCAGCCCCUGUCAGAUUCUGGUGAAUCUGCGAAUUCUGCUGUAUAUCUC
# Variants of: B1
# Test: self-cleavage, relative activity (ratio to wild type); higher = more cleavage; in vitro, sequencing
# Procedure, shortened: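 Libraries of CPEB3 self-cleaving ribozyme mutants came from rounds of error-prone PCR and carried barcodes, which DNA sequencing matched to variants. In vitro transcription used T7 RNA polymerase at 37°C for 5 hours, with a further 15 min in DNase I before EDTA stopped the reaction; the ribozymes cleaved during both steps. The RNA was reverse transcribed with template switching and sequenced on Illumina. Relative activity is the cleaved/total read fraction of a variant divided by that of the unmutated ribozyme, averaged over three batches with at least 5 reads.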
row,Variant,self-cleavage
1,UAACAGGCGGCCACAGCAGAAGCGCUCACGUCGCAGCCCCUGUCAGAUUCUGGUGAAUCUGCGAAUUCUGCUGUAUAUCUC [G8C U25C],0.15
2,UAACAGGUGGCCACAGCAGAAGCGUUCGCGUCGCAGCCCCUGUCAGAUUCUGGUGAAUCUGCGAAUUCUGCUGUAUAUCUC [G8U A28G],0.14
3,UAACAGGUGGCCACAGCAGAAGCGUUCUCGUCGCAGCCCCUGUCAGAUUCUGGUGAAUCUGCGAAUUCUGCUGUAUAUCUC [G8U A28U],0.09
4,UAACAGGUGGCCACAGCAGAAGCGUUCACGUCGCAGCCCCUGUCAGAUUCUGGUGAAUCUGCGAAUUCUGCUGUAUAUUUC [G8U C79U],0.04
5,UAACAGGUGGCCACAGCAGAAGCGUUCAUGUCGCAGCCCCUGUCAGAUUCUGGUGAAUCUGCGAAUUCUGCUGUAUAUCUC [G8U C29U],0.25
6,UAACAGGCGGCCACAGCAGAAGCGUUCACGUCGCAGCCCCUGUCAGAUUCUGGUGAAUCUGCGAAUGCUGCUGUAUAUCUC [G8C U67G],0.15
7,UAACAGGCGGCCACAGCAGAAGCGUUCACGUCGCAGCCCCUGUCAGAUUCUGGUGAAUCUGCGAAUCCUGCUGUAUAUCUC [G8C U67C],0.15
8,UAACAGGCGGCCACAGCAGAAGCGUUCACGUCGCAGCCCCUGUCAGAUUCUGGUGAAUCUGCGAAUUCUGCUUUAUAUCUC [G8C G73U],0.25
9,UAACAGGUGGCCACAGCAGAAGCGUUCACGUCGCAGCCCCUGUCAGAUUCUGGUGAAUCUGUGAAUUCUGCUGUAUAUCUC [G8U C62U],0.12
10,UAACAGGCGGCCACAGCAGAAGCGUUCACGUCGCAGCCCCUGUCAGAUUCUGGUGAAUCUGCGAAUUCCGCUGUAUAUCUC [G8C U69C],0.22
11,UAACAGGCGGCCACAGCAGAAGCGUUCACGUCGCAGCCCCUGUCAGAUUCUGGUGAAUCUGCGAAUUCUGCUGUAUAUCGC [G8C U80G],0.24
12,UAACAGGCGGCCACAGCAGAAGCGUUCACGCCGCAGCCCCUGUCAGAUUCUGGUGAAUCUGCGAAUUCUGCUGUAUAUCUC [G8C U31C],0.38
13,UAACAGGCGGCCACAGCAGAAGCGUUCACGGCGCAGCCCCUGUCAGAUUCUGGUGAAUCUGCGAAUUCUGCUGUAUAUCUC [G8C U31G],0.34
14,UAACAGGUGGUCACAGCAGAAGCGUUCACGUCGCAGCCCCUGUCAGAUUCUGGUGAAUCUGCGAAUUCUGCUGUAUAUCUC [G8U C11U],0.1
15,UAACAGGUGGCUACAGCAGAAGCGUUCACGUCGCAGCCCCUGUCAGAUUCUGGUGAAUCUGCGAAUUCUGCUGUAUAUCUC [G8U C12U],0.3
16,UAACAGGCGGCCACAGCAGAAGCGUUCACGUCGCAGCCCCUGUCAGAUUCUAGUGAAUCUGCGAAUUCUGCUGUAUAUCUC [G8C G52A],0.31
17,UAACAGGUGGCCACAGCAGAAGCGUUCACGUCGCAGCCCCUGUCAGAUUCUGGUGAAUCUGCGAAUUCUGCUGUAUAUCUC [G8U],0.23

row,Variant,self-cleavage
1,UAACAGGUGGCCACAGCAGGAGCGUUCACGUCGCAGCCCCUGUCAGAUUCUGGUGAAUCUGCGAAUUCUGCUGUAUAUCUC [G8U A20G],0.17
2,UAACAGGCGGCCACAGCAGAAGCGUUCACGUCGCAGCCCCUGUCAGAUUCUGGUAAAUCUGCGAAUUCUGCUGUAUAUCUC [G8C G55A],0.37
3,UAACAGGUGGCCACAGCAGAAGCGUUCACGUCGCAGCCCUUGUCAGAUUCUGGUGAAUCUGCGAAUUCUGCUGUAUAUCUC [G8U C40U],0.11
4,UAACAGGUGGCCACAGCGGAAGCGUUCACGUCGCAGCCCCUGUCAGAUUCUGGUGAAUCUGCGAAUUCUGCUGUAUAUCUC [G8U A18G],0.14
5,UAACAGGUGGCCACAGCUGAAGCGUUCACGUCGCAGCCCCUGUCAGAUUCUGGUGAAUCUGCGAAUUCUGCUGUAUAUCUC [G8U A18U],0.16
6,UAACAGGUGGCCACAGCACAAGCGUUCACGUCGCAGCCCCUGUCAGAUUCUGGUGAAUCUGCGAAUUCUGCUGUAUAUCUC [G8U G19C],0.23
7,UAACAGGUGGCCACAGCAGAUGCGUUCACGUCGCAGCCCCUGUCAGAUUCUGGUGAAUCUGCGAAUUCUGCUGUAUAUCUC [G8U A21U],0.17
8,UAACAGGCGGCCACAGCAGAAGCGUUCACGUCGCAGCCCCUGUCAGAUUCUGGUGAAUCUGCGAAUUCUGCUGUAUACCUC [G8C U78C],0.07
9,UAACAGGCGGCCACAGCAGAAGCGUUCACGUCGCAGCCCCUGUCAGAUUCUGGUGAACCUGCGAAUUCUGCUGUAUAUCUC [G8C U58C],0.21
10,UAACAGGUGGCCACAGCAGAAGCGUUCACGUCGCAGCCCCUGUCAGAUUCUGGUGAAUUUGCGAAUUCUGCUGUAUAUCUC [G8U C59U],0.1
11,UAACAGGCGGCCACAGCAGAAGCGUCCACGUCGCAGCCCCUGUCAGAUUCUGGUGAAUCUGCGAAUUCUGCUGUAUAUCUC [G8C U26C],0.08
12,UAACAGGCGGCCACAGCAGAAGCGUUCACGUCGCAGCCCCUGUCAGAUUCUGGCGAAUCUGCGAAUUCUGCUGUAUAUCUC [G8C U54C],0.44
13,UAACAGGUGGCCACAGCAGAAGCGUUCACGUCGCAGCCCCUGUCAGGUUCUGGUGAAUCUGCGAAUUCUGCUGUAUAUCUC [G8U A47G],0.13
14,UAACAGGUGGCCACAGCAGAAGCGUUCACGUCGCAGCCCCUGUCAGAUUCUGGUGUAUCUGCGAAUUCUGCUGUAUAUCUC [G8U A56U],0.14
15,UAACAGGUGGCCACAGCAGAAGCGUUCACGUCGCAGCCUCUGUCAGAUUCUGGUGAAUCUGCGAAUUCUGCUGUAUAUCUC [G8U C39U],0.08
16,UAACAGGUGGCCAUAGCAGAAGCGUUCACGUCGCAGCCCCUGUCAGAUUCUGGUGAAUCUGCGAAUUCUGCUGUAUAUCUC [G8U C14U],0.06
17,UAACAGGUAGCCACAGCAGAAGCGUUCACGUCGCAGCCCCUGUCAGAUUCUGGUGAAUCUGCGAAUUCUGCUGUAUAUCUC [G8U G9A],0.33
